Assay results reported in patent US20240301023A1 (PREVECEUTICAL MEDICAL, published 2024).
Square brackets hold non-standard residues; d marks the D form. Primed or numbered codes have the meaning given here. Ends that are not written are not given here. Phe(4-NO2) = N[C@@H](Cc1ccc([N+](=O)[O-])cc1)C(=O)O; Phe(4-Cl) = N[C@@H](Cc1ccc(Cl)cc1)C(=O)O; Phe(4-F) = N[C@@H](Cc1ccc(F)cc1)C(=O)O; Api = NC1(C(=O)O)CCNCC1; NMA″ = not defined here; NMA = N-methylarginine; GABA = NCCCC(=O)O; Sar = CNCC(=O)O

B1: CR845 (SEQ ID NO. 35: DPhe-DPhe-DLeu-DLys-Cap-CO2H) (peptide)
peptide: [dF][dF][dL][dK][Api]-OH
modifications: N-terminus assumed
SMILES: CC(C)C[C@@H](NC(=O)[C@@H](Cc1ccccc1)NC(=O)[C@H](N)Cc1ccccc1)C(=O)N[C@H](CCCCN)C(=O)NC1(C(=O)O)CCNCC1
B2: SEQ ID NO. 17: NH2-Tyr-Sar-(4-Cl)Phe-Leu-Arg-NMA-NH2 (peptide)
peptide: H-Y[Sar][Phe(4-Cl)]LR[NMA″]-NH2
modifications: reading uncertain; also: printed as NH2-Tyr-Sar-(4-Cl)Phe-Leu-Arg-NMA-NH2
B3: SEQ ID NO. 24: NH2-Tyr-Sar-(4-Cl)Phe-Leu-Arg-DArg-C7H14-CONH2 (peptide)
peptide: H-Y[Sar][Phe(4-Cl)]LR[dR]-{C7H14‑CONH2}
B4: SEQ ID NO. 11: NH2-Tyr-Sar-(4-Cl)Phe-Leu-Arg-DArg-NH2 (peptide)
peptide: H-Y[Sar][Phe(4-Cl)]LR[dR]-NH2
B5: SEQ ID NO. 13: NH2-Tyr-Sar-(4-Cl)Phe-Leu-NMA-DArg-NH2 (peptide)
peptide: H-Y[Sar][Phe(4-Cl)]LX[dR]-NH2
modifications: not fully specified (residue 5); printed as NH2-Tyr-Sar-(4-Cl)Phe-Leu-NMA-DArg-NH2
B6: SEQ ID NO. 14: NH2-Tyr-Sar-(4-F)Phe-Leu-NMA-DArg-NH2 (peptide)
peptide: H-Y[Sar][Phe(4-F)]L[NMA][dR]-NH2
B7: SEQ ID NO. 6: NH2-Tyr-Sar-Phe-Leu-DArg-Arg-NH2 (peptide)
peptide: H-Y[Sar]FL[dR]R-NH2
B8: SEQ ID NO. 4: NH2-Tyr-Sar-(4-NO2)Phe-Leu-Arg-DArg-NH2 (peptide)
peptide: H-Y[Sar][Phe(4-NO2)]LR[dR]-NH2
B9: SEQ ID NO. 7: NH2-Tyr-Sar-Phe-Leu-DArg-DArg-NH2 (peptide)
peptide: H-Y[Sar]FL[dR][dR]-NH2
B10: SEQ ID NO. 20: NH2-Tyr-Sar-(4-Cl)Phe-Leu-Arg-DArg-Ile-Arg-NH2 (peptide)
peptide: H-Y[Sar][Phe(4-Cl)]LR[dR]IR-NH2
B11: SEQ ID NO. 1: NH2-Tyr-Gaba-Phe-Leu-Arg-Arg-NH2 (peptide)
peptide: H-Y[GABA]FLRR-NH2
SMILES: CC(C)C[C@H](NC(=O)[C@H](Cc1ccccc1)NC(=O)CCCNC(=O)[C@@H](N)Cc1ccc(O)cc1)C(=O)N[C@@H](CCCNC(=N)N)C(=O)N[C@@H](CCCNC(=N)N)C(N)=O
B12: SEQ ID NO. 28: NH2-Tyr-Sar-(4-Cl)Phe-Leu-Arg-DArg-C7H14-COOH (peptide)
peptide: H-Y[Sar][Phe(4-Cl)]LR[dR]
modifications: not fully specified (C-terminus); printed as NH2-Tyr-Sar-(4-Cl)Phe-Leu-Arg-DArg-C7H14-COOH
B13: SEQ ID NO. 2: NH2-Tyr-Sar-Phe-Leu-Arg-Arg-NH2 (peptide)
peptide: H-Y[Sar]FLRR-NH2
B14: SEQ ID NO. 5: NH2-Tyr-Sar-(4-NO2)Phe-Leu-DArg-Arg-NH2 (peptide)
peptide: H-Y[Sar][Phe(4-NO2)]L[dR]R-NH2
B15: SEQ ID NO. 9: NH2-Phe-Sar-(4-NO2)Phe-Leu-DArg-DArg-NH2 (peptide)
peptide: H-F[Sar][Phe(4-NO2)]L[dR][dR]-NH2
SMILES: CC(C)C[C@H](NC(=O)[C@H](Cc1ccc([N+](=O)[O-])cc1)NC(=O)CN(C)C(=O)[C@@H](N)Cc1ccccc1)C(=O)N[C@H](CCCNC(=N)N)C(=O)N[C@H](CCCNC(=N)N)C(N)=O
B16: SEQ ID NO. 12: NH2-Tyr-Sar-(4-F)Phe-Leu-Arg-DArg-NH2 (peptide)
peptide: H-Y[Sar][Phe(4-F)]LR[dR]-NH2
B17: SEQ ID NO. 16: NH2-Tyr-Sar-(4-Cl)Phe-Leu-Lys-DArg-NH2 (peptide)
peptide: H-Y[Sar][Phe(4-Cl)]LK[dR]-NH2
SMILES: CC(C)C[C@H](NC(=O)[C@H](Cc1ccc(Cl)cc1)NC(=O)CN(C)C(=O)[C@@H](N)Cc1ccc(O)cc1)C(=O)N[C@@H](CCCCN)C(=O)N[C@H](CCCNC(=N)N)C(N)=O
B18: SEQ ID NO. 3: NH2-Tyr-Sar-Phe-Leu-Arg-DArg-NH2 (peptide)
peptide: H-Y[Sar]FLR[dR]-NH2
B19: SEQ ID NO. 18: NH2-Tyr-Sar-(4-NO2)Phe-Leu-Arg-NMA-NH2 (peptide)
peptide: H-Y[Sar][Phe(4-NO2)]LRX-NH2
modifications: not fully specified (residue 6); printed as NH2-Tyr-Sar-(4-NO2)Phe-Leu-Arg-NMA-NH2
B20: SEQ ID NO. 31: NH2-Tyr-Sar-(4-NO2)Phe-Leu-Arg-DArg-C7H14-CONH2 (peptide)
peptide: H-Y[Sar][Phe(4-NO2)]LR[dR]-{C7H14‑CONH2}
B21: SEQ ID NO. 15: NH2-Tyr-Sar-(4-NO2)Phe-Leu-NMA-DArg-NH2 (peptide)
peptide: H-Y[Sar][Phe(4-NO2)]L[NMA][dR]-NH2
B22: SEQ ID NO. 25: NH2-Tyr-Sar-(4-Cl)Phe-Leu-Arg-DArg-Ile-DArg-NH2 (peptide)
peptide: H-Y[Sar][Phe(4-Cl)]LR[dR]I[dR]-NH2
B23: SEQ ID NO. 10: NH2-Tyr-Sar-(4-NO2)Phe-Leu-DLys-DArg-NH2 (peptide)
peptide: H-Y[Sar][Phe(4-NO2)]L[dK][dR]-NH2

Key:
Experiment in all cases: cell-based or functional assay
[1] = molecular target: Mu opioid receptor (MOR)
[2] = molecular target: Delta opioid receptor (DOR)
[3] = molecular target: T1, Kappa opioid receptor (KOR) (Homo sapiens (Human), UniProt P41145 1-380)
[4] = molecular target: Mu opioid receptor (MOR); remark: listed apart in the source
[5] = molecular target: Delta opioid receptor (DOR); remark: listed apart in the source
[6] = molecular target: T1, Kappa opioid receptor (KOR); remark: listed apart in the source

Sequence of Mu opioid receptor (MOR) (P35372 whole entry): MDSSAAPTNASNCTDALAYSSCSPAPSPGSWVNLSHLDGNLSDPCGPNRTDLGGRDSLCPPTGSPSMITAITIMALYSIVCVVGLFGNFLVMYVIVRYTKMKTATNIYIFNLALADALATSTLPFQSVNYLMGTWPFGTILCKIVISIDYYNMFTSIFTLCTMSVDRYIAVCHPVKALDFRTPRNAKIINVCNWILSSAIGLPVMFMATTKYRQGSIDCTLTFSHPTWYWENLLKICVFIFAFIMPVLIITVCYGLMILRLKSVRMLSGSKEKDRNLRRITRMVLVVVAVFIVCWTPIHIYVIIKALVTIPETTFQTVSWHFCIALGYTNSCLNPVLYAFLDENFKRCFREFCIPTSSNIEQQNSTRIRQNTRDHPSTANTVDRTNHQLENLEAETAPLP
T1 sequence (P41145 whole entry, form in doubt): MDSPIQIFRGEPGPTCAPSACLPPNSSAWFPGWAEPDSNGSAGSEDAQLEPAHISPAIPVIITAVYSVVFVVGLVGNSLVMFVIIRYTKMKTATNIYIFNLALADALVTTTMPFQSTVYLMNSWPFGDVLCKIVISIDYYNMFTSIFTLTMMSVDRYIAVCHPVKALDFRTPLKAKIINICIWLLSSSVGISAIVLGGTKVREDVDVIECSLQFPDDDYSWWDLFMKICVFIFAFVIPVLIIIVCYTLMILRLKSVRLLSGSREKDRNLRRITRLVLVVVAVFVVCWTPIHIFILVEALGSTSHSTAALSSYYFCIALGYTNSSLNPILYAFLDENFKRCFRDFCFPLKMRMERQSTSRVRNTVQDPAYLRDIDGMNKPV

Binder | Activity (EC50, nM), cAMP assay [1] | Activity (EC50, nM), cAMP assay [2] | Activity (EC50, nM), cAMP assay [3] | cAMP assay (ALPHAScreen), result at 1 µM peptide [4] | cAMP assay (ALPHAScreen), result at 10 µM peptide [4] | cAMP assay (ALPHAScreen), result at 1 µM peptide [5] | cAMP assay (ALPHAScreen), result at 10 µM peptide [5] | cAMP assay (ALPHAScreen), result at 1 µM peptide [6] | cAMP assay (ALPHAScreen), result at 10 µM peptide [6]
B1 | > 10000 nM | > 10000 nM | 0.37 nM | 0.37 | 8.07 | -5.72 | 3.27 | 25.9 | 34.6
B2 | > 10000 nM | – | 3.9 nM | – | – | – | – | – | –
B3 | > 10000 nM | > 10000 nM | – | – | – | – | – | – | –
B4 | > 10000 nM | > 10000 nM | 6.1 nM | -0.86 | 1.37 | -1.18 | 4.27 | 27.7 | 34
B5 | > 10000 nM | > 10000 nM | 4.54 nM | – | – | – | – | – | –
B6 | 4000 nM | 1660 nM | 11.6 nM | – | – | – | – | – | –
B7 | – | – | – | 1.04 | 7.84 | -0.03 | 2.25 | 14.2 | 35.1
B8 | > 10000 nM | > 10000 nM | – | 0.17 | 2.52 | -0.75 | 2.04 | – | –
B9 | – | – | – | 0.13 | 4.19 | -0.68 | 2.53 | 18.3 | 36
B10 | > 10000 nM | 3580 nM | – | – | – | – | – | – | –
B11 | – | – | – | -6.78 | 7.28 | 2.57 | 19.6 | 4.23 | 22.9
B12 | > 10000 nM | > 10000 nM | 2.33 nM | – | – | – | – | – | –
B13 | 6700 nM | > 10000 nM | 8.6 nM | -2.5 | 12.4 | -0.47 | 22 | 21.6 | 32.4
B14 | – | – | – | -0.05 | 4.32 | 0.05 | 2.02 | 33.4 | 43.1
B15 | – | – | – | -0.97 | -0.64 | -0.5 | 1.83 | 2.46 | 23.1
B16 | 3450 nM | > 10000 nM | 6.7 nM | – | – | – | – | – | –
B17 | > 10000 nM | – | 26 nM | – | – | – | – | – | –
B18 | > 10000 nM | > 10000 nM | 74.7 nM | -0.68 | 2.17 | -2.27 | 2.24 | 27.2 | 43.6
B19 | > 10000 nM | > 10000 nM | – | – | – | – | – | – | –
B20 | > 10000 nM | > 10000 nM | 2.49 nM | – | – | – | – | – | –
B21 | > 10000 nM | 1320 nM | 13.5 nM | – | – | – | – | – | –
B22 | 1610 nM | > 10000 nM | – | – | – | – | – | – | –
B23 | – | – | – | -1.27 | 0.02 | -3 | -0.95 | 8.47 | 25.1
